Results reported in patent publication US20140073518A1 (Stanford University, published 2014).

Legend:
[1] = molecular target: T1, soluble Alexa-488 labeled human Met-Fc (human, UniProt P08581 25-932, limits assumed, Alexa-488 label); test: dual receptor direct binding assay, flow cytometry; 220 nM Met-Fc, 2 or 20 nM protein
T1 construct: not shown: Fc part

[2] = molecular target: T2, αvβ3 integrin on K562-αvβ3 cells (K562 leukemia cells transfected with αvβ3 integrin) (UniProt P06756 31-1048; P05106 27-788); test: binding titration of the soluble fusion protein on K562-αvβ3 cells, flow cytometry; the cells express αvβ3 integrin and also Met receptor
T2 construct: whole, on cells; also called cell-surface αvβ3 integrin
T2 sequence (P06756 31-1048, chain 1 of 2): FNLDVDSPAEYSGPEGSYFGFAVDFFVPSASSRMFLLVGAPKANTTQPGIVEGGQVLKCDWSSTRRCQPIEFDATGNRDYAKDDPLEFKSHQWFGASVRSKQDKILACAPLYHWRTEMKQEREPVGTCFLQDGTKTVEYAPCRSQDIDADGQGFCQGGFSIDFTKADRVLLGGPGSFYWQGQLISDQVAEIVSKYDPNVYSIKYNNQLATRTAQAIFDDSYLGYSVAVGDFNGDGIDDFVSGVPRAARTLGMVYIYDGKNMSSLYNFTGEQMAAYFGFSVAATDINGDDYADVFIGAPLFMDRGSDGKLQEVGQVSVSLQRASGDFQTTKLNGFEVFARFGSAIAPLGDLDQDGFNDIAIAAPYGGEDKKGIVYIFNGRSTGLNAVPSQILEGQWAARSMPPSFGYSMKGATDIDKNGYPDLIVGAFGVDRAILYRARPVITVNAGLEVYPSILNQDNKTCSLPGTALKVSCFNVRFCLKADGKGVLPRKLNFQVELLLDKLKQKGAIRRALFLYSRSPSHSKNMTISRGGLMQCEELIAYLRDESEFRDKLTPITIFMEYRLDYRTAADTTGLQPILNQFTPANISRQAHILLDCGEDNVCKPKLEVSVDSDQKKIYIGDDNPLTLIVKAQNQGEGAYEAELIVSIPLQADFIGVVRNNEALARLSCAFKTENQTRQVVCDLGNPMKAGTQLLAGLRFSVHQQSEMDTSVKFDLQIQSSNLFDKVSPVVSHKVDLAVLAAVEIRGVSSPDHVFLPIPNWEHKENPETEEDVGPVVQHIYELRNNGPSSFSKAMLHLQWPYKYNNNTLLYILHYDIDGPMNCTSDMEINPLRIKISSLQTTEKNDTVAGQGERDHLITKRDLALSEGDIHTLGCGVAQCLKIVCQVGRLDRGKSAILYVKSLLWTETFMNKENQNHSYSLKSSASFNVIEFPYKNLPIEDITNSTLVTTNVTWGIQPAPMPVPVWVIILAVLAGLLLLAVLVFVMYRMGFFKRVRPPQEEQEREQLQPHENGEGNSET
T2 sequence (P05106 27-788, chain 2 of 2): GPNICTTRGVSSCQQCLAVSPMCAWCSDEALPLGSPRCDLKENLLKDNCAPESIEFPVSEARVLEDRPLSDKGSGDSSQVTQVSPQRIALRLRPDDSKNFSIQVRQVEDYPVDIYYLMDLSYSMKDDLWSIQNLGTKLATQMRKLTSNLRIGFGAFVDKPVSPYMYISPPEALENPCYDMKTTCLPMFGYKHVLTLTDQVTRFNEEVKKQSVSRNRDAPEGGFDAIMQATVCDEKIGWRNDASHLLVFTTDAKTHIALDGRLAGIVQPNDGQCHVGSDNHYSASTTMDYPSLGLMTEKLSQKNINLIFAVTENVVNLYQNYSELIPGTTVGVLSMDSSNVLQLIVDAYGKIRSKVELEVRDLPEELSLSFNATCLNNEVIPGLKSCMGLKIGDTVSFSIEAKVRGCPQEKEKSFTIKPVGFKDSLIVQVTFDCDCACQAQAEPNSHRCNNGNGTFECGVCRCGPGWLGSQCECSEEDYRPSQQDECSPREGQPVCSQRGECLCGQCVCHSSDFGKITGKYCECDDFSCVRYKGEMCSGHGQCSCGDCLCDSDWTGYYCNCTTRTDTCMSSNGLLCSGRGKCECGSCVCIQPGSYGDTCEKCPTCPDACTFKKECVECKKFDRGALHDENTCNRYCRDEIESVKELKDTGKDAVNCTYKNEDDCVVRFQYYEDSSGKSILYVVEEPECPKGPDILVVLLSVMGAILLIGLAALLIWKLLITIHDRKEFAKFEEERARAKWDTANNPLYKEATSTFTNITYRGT

[3] = molecular target: T2, αvβ3 integrin on K562-αvβ3 cells (K562 …); test: K562-αvβ3 cell binding assay
[4] = molecular target: T2, αvβ3 integrin on K562-αvβ3 cells (K562 …); test: flow cytometry on K562-αvβ3 cells, anti-FLAG detection
[5] = molecular target: T2, αvβ3 integrin on K562-αvβ3 cells (K562 …); test: binding to cells that express αvβ3 integrin
soluble αvβ3 integrin = molecular target: T3, soluble αvβ3 integrin (UniProt P06756 31-992; P05106 27-718); test: yeast surface display, flow cytometry
T3 construct: also called alpha v beta 3 integrin
T3 sequence (P06756 31-992, chain 1 of 2): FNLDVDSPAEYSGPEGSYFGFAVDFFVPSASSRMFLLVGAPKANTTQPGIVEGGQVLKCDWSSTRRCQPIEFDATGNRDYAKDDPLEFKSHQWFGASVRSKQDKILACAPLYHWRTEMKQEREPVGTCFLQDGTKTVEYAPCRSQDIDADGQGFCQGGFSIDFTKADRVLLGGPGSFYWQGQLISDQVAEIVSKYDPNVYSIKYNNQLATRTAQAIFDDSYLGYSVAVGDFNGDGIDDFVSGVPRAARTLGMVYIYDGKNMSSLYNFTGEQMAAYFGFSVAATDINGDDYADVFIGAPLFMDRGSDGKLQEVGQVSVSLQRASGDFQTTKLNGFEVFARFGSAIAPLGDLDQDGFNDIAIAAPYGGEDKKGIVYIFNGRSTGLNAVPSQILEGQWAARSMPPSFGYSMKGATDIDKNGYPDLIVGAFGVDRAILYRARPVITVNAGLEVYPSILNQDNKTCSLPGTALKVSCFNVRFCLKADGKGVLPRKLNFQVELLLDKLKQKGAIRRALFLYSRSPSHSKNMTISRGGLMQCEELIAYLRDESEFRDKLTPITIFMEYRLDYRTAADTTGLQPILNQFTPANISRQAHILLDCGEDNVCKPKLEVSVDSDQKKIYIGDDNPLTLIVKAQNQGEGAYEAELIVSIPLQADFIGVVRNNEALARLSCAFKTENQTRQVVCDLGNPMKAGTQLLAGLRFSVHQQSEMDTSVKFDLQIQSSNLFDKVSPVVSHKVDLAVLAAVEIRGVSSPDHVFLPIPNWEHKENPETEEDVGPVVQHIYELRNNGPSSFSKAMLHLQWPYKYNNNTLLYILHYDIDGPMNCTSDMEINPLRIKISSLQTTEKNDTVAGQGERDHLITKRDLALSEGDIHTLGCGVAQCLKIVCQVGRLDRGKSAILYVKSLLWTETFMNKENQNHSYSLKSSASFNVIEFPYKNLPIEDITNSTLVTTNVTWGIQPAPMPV
T3 sequence (P05106 27-718, chain 2 of 2): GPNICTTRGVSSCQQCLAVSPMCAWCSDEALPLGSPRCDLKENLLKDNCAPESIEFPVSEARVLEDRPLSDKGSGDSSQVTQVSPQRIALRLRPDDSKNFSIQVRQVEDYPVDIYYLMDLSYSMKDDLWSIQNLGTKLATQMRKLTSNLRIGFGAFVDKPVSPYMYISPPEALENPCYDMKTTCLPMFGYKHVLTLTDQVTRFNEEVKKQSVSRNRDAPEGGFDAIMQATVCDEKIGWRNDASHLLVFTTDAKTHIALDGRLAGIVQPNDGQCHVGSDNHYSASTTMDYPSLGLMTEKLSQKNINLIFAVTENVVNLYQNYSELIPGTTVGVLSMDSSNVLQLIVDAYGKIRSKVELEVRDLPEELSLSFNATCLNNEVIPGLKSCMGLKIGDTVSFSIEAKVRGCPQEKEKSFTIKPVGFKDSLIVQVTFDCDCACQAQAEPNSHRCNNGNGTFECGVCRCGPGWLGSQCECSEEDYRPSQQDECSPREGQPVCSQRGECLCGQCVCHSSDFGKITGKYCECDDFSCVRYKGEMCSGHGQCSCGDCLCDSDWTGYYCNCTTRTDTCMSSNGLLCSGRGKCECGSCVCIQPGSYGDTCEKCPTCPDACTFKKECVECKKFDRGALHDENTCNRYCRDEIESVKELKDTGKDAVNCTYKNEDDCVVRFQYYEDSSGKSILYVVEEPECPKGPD

[6] = molecular target: T4, Gas6 (growth arrest-specific 6), soluble, hexahistidine-tagged (UniProt Q14393 49-678, limits assumed); test: yeast surface display, flow cytometry
T4 construct: also called Gas6 ligand; soluble Gas6
T4 sequence (looked up): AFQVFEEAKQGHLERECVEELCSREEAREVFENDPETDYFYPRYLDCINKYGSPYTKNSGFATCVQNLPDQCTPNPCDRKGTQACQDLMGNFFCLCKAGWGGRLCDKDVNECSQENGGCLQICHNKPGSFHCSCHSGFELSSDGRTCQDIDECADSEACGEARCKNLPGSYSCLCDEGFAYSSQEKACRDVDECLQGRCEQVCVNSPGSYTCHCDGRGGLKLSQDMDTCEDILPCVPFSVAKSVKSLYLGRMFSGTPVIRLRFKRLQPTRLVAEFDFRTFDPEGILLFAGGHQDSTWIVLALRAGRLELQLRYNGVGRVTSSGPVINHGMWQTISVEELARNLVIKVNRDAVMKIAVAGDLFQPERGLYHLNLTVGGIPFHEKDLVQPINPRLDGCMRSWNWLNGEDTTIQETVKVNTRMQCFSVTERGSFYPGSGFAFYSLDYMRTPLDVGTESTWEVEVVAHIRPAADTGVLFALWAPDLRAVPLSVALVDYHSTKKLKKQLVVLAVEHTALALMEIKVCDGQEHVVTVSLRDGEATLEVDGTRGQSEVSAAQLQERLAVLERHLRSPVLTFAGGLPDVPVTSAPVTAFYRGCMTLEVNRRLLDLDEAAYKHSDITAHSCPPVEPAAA

[7] = molecular target: T4, Gas6 (growth arrest-specific 6), …; test: yeast surface display, soluble Gas6

T1 sequence (P08581 25-932 limits assumed): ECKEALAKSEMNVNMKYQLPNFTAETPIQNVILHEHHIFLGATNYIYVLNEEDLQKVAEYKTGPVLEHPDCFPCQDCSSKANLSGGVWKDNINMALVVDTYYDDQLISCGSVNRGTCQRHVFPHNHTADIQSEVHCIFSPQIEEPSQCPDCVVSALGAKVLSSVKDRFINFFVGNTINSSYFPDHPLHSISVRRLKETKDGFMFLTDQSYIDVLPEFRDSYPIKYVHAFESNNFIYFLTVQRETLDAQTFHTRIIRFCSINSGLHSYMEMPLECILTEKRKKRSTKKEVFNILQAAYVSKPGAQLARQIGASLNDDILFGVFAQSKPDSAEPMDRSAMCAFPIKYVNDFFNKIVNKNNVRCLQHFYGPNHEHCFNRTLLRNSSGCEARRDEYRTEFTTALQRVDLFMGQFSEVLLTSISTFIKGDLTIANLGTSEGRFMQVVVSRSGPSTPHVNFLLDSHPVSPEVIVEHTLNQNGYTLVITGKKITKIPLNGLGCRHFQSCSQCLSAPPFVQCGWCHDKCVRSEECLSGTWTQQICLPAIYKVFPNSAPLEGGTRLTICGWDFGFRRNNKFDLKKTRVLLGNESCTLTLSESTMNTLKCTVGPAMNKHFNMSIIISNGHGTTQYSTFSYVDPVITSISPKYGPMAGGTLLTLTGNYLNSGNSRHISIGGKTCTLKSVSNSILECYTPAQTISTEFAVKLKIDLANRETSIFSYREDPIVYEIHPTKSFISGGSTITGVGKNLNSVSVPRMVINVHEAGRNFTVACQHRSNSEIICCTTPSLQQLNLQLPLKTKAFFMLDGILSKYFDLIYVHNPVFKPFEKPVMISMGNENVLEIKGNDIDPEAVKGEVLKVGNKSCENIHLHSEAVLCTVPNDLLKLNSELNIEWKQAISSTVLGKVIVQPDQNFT

B1: AgRp7A-M2.2 fusion protein (designed binder)
chain: DYKDDDDKPRGCVRLHESCLGQQVPCCDPAATCYCSGRGDNDLVCYCRYAEGQRKRRNTIHEFKKSAKTTLIKIDPALKIKTEKVNTADQCANRCTRNKGLPFTCKAFVFDKARKRCLWFPFNSMSSGVKKEFGHEFDLYENKDYIRDCIIGNGRSYRGTVSITKSGIKCQPWSSMIPHEHSFLPSSYRGEDLRENYCRNPRGEEGGPWCFTSDPEVRYEVCDIPQCSEVETRHHHHHH
B1: binds [1].

B2: AgRP7A-Aras4 fusion protein (soluble, FLAG and His tagged) (designed binder)
chain: DYKDDDDKPRGCVRLHESCLGQQVPCCDPAATCYCSGRGDNDLVCYCRYAEGQGKRRNTIHEFKKSAKTTLIKIDPALRIKTEKANTADQCANRCTRSKGLPFTCKAFVFDKARKRCLWFPFNSMSSGVKKEFGHEFDLYENKAYIRDCIIGRGRNYRGTVSITKSGIKCQPWSAMIPHEHSFLPSSYRGEDLRENYCRNPRGEEGGPWCYTSDPEVRYEVCDIPQCSEVETRHHHHHH
notes: Produced in Pichia pastoris
B2 was tested, and the “EC50 (read off the curve)” value [2] was ~1 nM.

B3: AgRp7A-M2.2(D127A) fusion protein (designed binder)
chain: DYKDDDDKPRGCVRLHESCLGQQVPCCDPAATCYCSGRGDNDLVCYCRYAEGQRKRRNTIHEFKKSAKTTLIKIDPALKIKTEKVNTADQCANRCTRNKGLPFTCKAFVFDKARKRCLWFPFNSMSSGVKKEFGHEFDLYENKDYIRACIIGNGRSYRGTVSITKSGIKCQPWSSMIPHEHSFLPSSYRGEDLRENYCRNPRGEEGGPWCFTSDPEVRYEVCDIPQCSEVETRHHHHHH
With B3 the Kd [3] was 2.1 nM and the binding result [1] was “binds”.

B4: EETI 2.5D-Axl fusion protein (soluble, produced in P. pastoris) (designed binder)
chain: GCPQGRGDWAPTSCSQDSDCLAGCVCGPNGFCGSRGTQAEESPFVGNPGNITGARGLTGTLRCQLQVQGEPPEVHWLRDGQILELADSTQTQVPLGEDEQDDWIVVSQLRITSLQLSDTGQYQCLVFLGHQTFVSQPGYVGLEGLP
notes: Treated with endoH; monomeric; also called 2.5D - Axl Ig1; recombinantly produced EETI 2.5D-Axl
For B4, the Kd [4] was 1.72 nM and the Kd [5] was ~2 nM.

B5: EETI2.5F-M2.2(D127A) fusion protein (designed binder)
chain: DYKDDDDKPRGCPRPRGDNPPLTCSQDSDCLAGCVCGPNGFCGYAEGQRKRRNTIHEFKKSAKTTLIKIDPALKIKTEKVNTADQCANRCTRNKGLPFTCKAFVFDKARKRCLWFPFNSMSSGVKKEFGHEFDLYENKDYIRACIIGNGRSYRGTVSITKSGIKCQPWSSMIPHEHSFLPSSYRGEDLRENYCRNPRGEEGGPWCFTSDPEVRYEVCDIPQCSEVETRHHHHHH
With B5 the Kd [3] was 4.6 nM and the binding result [1] was “binds”.

B6: EETI2.5F-M2.2 fusion protein (designed binder)
chain: DYKDDDDKPRGCPRPRGDNPPLTCSQDSDCLAGCVCGPNGFCGYAEGQRKRRNTIHEFKKSAKTTLIKIDPALKIKTEKVNTADQCANRCTRNKGLPFTCKAFVFDKARKRCLWFPFNSMSSGVKKEFGHEFDLYENKDYIRDCIIGNGRSYRGTVSITKSGIKCQPWSSMIPHEHSFLPSSYRGEDLRENYCRNPRGEEGGPWCFTSDPEVRYEVCDIPQCSEVETRHHHHHH
B6: binds [1].

B7: wild-type Axl Ig1 (yeast-displayed) (receptor)
chain: APRGTQAEESPFVGNPGNITGARGLTGTLRCQLQVQGEPPEVHWLRDGQILELADSTQTQVPLGEDEQDDWIVVSQLRITSLQLSDTGQYQCLVFLGHQTFVSQPGYVGLEGLP
notes: T0017 footnote says amino acids 19-132; also called Wt Axl; wt Axl Ig1
B7: no binding (tested: 20, 50 or 100 nM αvβ3 integrin) (soluble αvβ3 integrin).

B8: EETI-II mutant 2.5D (yeast-displayed) (designed binder)
chain: GCPQGRGDWAPTSCKQDSDCRAGCVCGPNGFCG
notes: also called EETI 2.5D
B8: no binding (tested: 0.2, 2 or 20 nM Gas6) [6].

B9: EETI-II mutant of EA 7.01 alone (expressed without Axl) (designed binder)
chain: GCALMTPSAVDCKQDSDCLAGCVCLPGMVRCGS
notes: also called EETI-II mutants alone
B9: no binding [7].

B10: EETI-II mutant of EA 7.06 alone (expressed without Axl) (designed binder)
chain: GCLGGVALAHCKQDSDCLAGCVCHILPELCGS
notes: as for B9
B10: no binding [7].

B11: EETI-II mutant of EA 8.04 alone (expressed without Axl) (designed binder)
chain: GCSWSTLARCKQDSDCLAGCVCMLEPGMRSCGS
notes: as for B9
B11: no binding [7].
